In US20190077860A1 (EISAI R AND D MANAGEMENT, published 2019):
Substitutions are numbered along the chain they refer to.

T1: human EphA6 extracellular region-SEAP-His protein (human, UniProt Q9UF33 23-550)
T1 construct: extracellular domain; also called hEphA6-SEAP-His
T1 sequence (looked up): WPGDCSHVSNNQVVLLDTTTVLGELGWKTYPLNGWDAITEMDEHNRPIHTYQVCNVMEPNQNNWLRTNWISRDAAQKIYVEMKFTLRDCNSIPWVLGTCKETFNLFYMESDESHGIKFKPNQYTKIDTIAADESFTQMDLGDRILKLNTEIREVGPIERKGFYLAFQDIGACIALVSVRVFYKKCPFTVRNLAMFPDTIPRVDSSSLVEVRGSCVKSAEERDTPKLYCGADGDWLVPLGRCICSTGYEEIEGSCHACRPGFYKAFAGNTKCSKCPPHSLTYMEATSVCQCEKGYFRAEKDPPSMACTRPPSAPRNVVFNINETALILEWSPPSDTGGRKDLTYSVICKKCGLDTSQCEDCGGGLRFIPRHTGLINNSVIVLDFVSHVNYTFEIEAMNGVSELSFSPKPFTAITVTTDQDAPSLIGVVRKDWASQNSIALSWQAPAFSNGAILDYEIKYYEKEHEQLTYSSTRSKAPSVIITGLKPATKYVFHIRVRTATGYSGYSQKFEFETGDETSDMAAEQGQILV

T2: human EphA10 extracellular region-SEAP-His protein (human, UniProt Q5JZY3 34-565)
T2 construct: extracellular domain; also called hEphA10-SEAP-His
T2 sequence (looked up): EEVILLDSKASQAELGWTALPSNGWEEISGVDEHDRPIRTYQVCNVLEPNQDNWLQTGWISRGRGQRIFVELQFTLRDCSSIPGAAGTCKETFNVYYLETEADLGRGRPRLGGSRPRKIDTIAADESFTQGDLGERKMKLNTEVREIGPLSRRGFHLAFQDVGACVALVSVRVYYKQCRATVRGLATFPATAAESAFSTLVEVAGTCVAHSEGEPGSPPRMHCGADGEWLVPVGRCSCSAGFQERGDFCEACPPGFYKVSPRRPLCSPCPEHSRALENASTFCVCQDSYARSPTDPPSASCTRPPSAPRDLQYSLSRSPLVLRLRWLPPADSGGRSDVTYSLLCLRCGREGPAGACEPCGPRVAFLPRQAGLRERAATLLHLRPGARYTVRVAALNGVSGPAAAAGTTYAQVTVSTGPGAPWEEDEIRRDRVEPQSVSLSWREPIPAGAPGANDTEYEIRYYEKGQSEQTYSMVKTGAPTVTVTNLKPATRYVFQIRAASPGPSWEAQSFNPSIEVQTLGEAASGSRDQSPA

T3: human EphA3 extracellular region-SEAP-His protein (human, UniProt P29320 21-541)
T3 construct: extracellular domain; also called hEphA3-SEAP-His
T3 sequence (looked up): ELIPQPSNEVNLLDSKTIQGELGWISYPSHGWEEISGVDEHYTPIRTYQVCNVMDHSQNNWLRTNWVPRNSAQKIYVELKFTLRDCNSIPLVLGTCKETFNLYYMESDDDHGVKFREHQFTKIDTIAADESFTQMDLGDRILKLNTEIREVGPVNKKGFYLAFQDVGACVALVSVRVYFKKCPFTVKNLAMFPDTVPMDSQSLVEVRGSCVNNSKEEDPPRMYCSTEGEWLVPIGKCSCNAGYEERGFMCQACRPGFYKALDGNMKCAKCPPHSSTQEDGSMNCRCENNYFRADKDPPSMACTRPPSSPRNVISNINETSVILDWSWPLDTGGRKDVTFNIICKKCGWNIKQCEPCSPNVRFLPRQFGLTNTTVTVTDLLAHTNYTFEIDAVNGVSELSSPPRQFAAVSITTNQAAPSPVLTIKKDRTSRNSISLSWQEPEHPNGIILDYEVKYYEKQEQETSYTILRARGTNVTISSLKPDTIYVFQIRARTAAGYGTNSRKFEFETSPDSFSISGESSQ

T4: human EphB2 extracellular region-SEAP-His protein (human, UniProt P29323 19-543)
T4 construct: extracellular domain; also called hEphB2-SEAP-His
T4 sequence (looked up): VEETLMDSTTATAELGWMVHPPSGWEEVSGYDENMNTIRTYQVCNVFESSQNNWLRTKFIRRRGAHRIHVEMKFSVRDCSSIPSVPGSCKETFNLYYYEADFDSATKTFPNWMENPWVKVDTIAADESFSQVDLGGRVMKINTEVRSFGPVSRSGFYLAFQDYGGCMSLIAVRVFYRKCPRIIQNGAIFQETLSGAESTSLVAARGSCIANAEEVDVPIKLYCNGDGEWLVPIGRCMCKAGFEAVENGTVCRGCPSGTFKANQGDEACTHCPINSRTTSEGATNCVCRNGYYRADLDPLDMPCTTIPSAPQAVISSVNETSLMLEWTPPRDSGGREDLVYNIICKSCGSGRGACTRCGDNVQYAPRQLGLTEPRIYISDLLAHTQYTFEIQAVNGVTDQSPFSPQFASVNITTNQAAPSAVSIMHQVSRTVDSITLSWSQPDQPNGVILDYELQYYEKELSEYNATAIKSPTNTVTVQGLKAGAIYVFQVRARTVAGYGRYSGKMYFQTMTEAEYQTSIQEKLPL

B1: humanized antibody No. 95 (antibody, human IgG1, kappa)
heavy: QVQLVQSGSELKKPGASVKVSCKASGYTFTDYSMHWVRQAPGQGLEWMGWINTETGEPTYADDFKGRFVFSLDTSVSTAYLQISSLKAEDTAVYYCARIPLYYYGSRYWYFDVWGQGTTVTVSSASTKGPSVFPLAPSSKSTSGGTAALGCLVKDYFPEPVTVSWNSGALTSGVHTFPAVLQSSGLYSLSSVVTVPSSSLGTQTYICNVNHKPSNTKVDKRVEPKSCDKTHTCPPCPAPPAAAPSVFLFPPKPKDTLMISRTPEVTCVVVDVSHEDPEVQFNWYVDGVEVHNAKTKPREEQFNSTFRVVSVLTVVHQDWLNGKEYKCKVSNKGLPAPIEKTISKTKGQPREPQVYTLPPSREEMTKNQVSLTCLVKGFYPSDIAVEWESNGQPENNYKTTPPMLDSDGSFFLYSKLTVDKSRWQQGNVFSCSVMHEALHNHYTQKSLSLSPG
light: EIVMTQSPATLSVSPGERATLSCRASENIYRNLAWYQQKPGQSPRLLIYAATNLADGIPARFSGSGSGTEYTLTISSLQSEDFAVYYCQHFWGTPWTFGQGTKVEIKRTVAAPSVFIFPPSDEQLKSGTASVVCLLNNFYPREAKVQWKVDNALQSGNSQESVTEQDSKDSTYSLSSTLTLSKADYEKHKVYACEVTHQGLSSPVTKSFNRGEC
notes: human Ig kappa; also called L2-4/HK1
B2: humanized antibody No. 96 (antibody, human IgG1, kappa)
heavy: B1 heavy with E46K
light: B1 light
notes: human Ig kappa; also called L2-4/HK2

Legend:
Test in all cases: ELISA
[1] = target: T1, human EphA6 extracellular …
[2] = target: T2, human EphA10 extracellular …
[3] = target: T3, human EphA3 extracellular …
[4] = target: T4, human EphB2 extracellular …

Binder	A450 as % of hEphA4-SEAP-His [1] [%]	A450 as % of hEphA4-SEAP-His [2] [%]	A450 as % of hEphA4-SEAP-His [3] [%]	A450 as % of hEphA4-SEAP-His [4] [%]
B1	7	4.5	4.8	4.7
B2	9.8	5.3	5.5	5.5
